Bridges are numbered along the chain shown (N, C = ends). Primed or numbered codes have the meaning given here. Side-chain parts run from the residue outwards. [ ]: non-standard residue; d: D form. Ygp(4) = Tyr with amino-capped PEG8 (O-(8x polyethylene glycol-amino)-tyrosine); Yn3(4) = Tyr with azide-capped PEG9 (O-(9x polyethylene glycol-azido)-tyrosine); Ygp(8) = Tyr, amino-capped PEG8 (O-(8x polyethylene glycol-amino)-tyrosine); Yn3(8) = Tyr, azide-capped PEG9 (O-(9x polyethylene glycol-azido)-tyrosine); Ygp″ = O-(8x polyethylene glycol-amino)-tyrosine; Yn3″ = O-(9x polyethylene glycol-azido)-tyrosine; PEG9′ = 9x polyethylene glycol; hSer = N[C@@H](CCO)C(=O)O; Nle = CCCC[C@H](N)C(=O)O
T1: IL-2Rβγ on HEK-Blue IL-2Rβγ reporter cells (InvivoGen) (UniProt P14784 27-551; P31785 23-369, limits assumed)
T1 sequence (looked up) 1: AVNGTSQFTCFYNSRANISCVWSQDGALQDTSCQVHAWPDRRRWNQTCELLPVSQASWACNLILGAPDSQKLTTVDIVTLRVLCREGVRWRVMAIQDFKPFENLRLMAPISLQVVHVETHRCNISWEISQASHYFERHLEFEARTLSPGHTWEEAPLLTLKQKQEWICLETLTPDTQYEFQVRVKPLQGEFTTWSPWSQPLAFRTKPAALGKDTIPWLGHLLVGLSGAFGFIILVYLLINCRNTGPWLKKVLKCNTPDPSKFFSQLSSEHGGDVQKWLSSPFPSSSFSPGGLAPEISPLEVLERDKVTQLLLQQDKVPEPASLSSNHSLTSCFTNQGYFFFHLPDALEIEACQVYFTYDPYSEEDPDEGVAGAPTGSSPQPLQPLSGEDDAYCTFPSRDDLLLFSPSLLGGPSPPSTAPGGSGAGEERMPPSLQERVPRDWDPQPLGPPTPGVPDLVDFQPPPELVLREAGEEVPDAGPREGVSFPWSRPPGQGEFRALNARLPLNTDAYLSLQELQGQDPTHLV
T1 sequence (looked up) 2: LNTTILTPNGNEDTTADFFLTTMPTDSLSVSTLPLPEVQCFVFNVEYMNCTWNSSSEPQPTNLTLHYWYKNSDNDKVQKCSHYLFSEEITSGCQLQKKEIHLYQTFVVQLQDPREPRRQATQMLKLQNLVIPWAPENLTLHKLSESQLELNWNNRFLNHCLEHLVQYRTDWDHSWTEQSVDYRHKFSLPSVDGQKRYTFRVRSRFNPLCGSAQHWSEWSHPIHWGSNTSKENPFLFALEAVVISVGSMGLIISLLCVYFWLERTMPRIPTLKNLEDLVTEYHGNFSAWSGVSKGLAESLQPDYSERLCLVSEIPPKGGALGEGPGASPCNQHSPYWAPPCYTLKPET

T2: IL-2 receptor βγ complex (human, UniProt P14784 27-551; P31785 23-369)
T2 sequence (looked up) 1: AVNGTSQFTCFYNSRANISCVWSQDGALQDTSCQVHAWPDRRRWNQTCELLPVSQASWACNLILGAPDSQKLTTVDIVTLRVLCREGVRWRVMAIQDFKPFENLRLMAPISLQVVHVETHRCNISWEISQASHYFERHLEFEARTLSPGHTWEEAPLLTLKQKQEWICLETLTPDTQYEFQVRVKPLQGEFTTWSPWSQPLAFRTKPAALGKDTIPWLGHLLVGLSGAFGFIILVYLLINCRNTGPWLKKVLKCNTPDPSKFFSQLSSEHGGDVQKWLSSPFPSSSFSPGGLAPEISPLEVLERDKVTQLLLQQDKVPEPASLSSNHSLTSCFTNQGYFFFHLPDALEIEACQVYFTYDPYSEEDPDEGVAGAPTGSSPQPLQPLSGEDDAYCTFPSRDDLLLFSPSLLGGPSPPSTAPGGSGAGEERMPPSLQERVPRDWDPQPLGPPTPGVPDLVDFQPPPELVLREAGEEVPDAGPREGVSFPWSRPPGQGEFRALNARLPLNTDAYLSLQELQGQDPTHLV
T2 sequence (looked up) 2: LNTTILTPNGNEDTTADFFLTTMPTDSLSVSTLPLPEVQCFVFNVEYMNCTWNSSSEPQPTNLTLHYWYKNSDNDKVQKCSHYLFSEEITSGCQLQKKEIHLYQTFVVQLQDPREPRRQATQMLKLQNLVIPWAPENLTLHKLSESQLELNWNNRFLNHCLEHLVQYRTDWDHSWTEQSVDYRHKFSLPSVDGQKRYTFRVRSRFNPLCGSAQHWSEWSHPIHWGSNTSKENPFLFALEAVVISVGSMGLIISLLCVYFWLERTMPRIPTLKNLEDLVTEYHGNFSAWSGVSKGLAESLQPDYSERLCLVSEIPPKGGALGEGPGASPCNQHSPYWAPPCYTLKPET

B1: CMP-302, MMP2 cleaved (ligand)
chain: GPLGLAGAPTSSSTKKTQLQLEHLLLDLQEILNGINNYKNPKLTR[Nle]L[hSer][Yn3″]KF[Ygp″][Nle]PKKATELKHLQCLEEELKPLEEVL[hSer]LAQSKNFHLRPRDLISNINVIVLELKGSETTF[hSer]CEYADETATIVEFLNRWITFSQSIISTLT
modifications: ends and bridges not checked; also: MMP2 cleaved, ring opened, cut site and remnants not given here
B2: CMP-304, MMP2 cleaved (ligand)
chain: PLGLAGAPTSSSTKKTQLQLEHLLLDLQEILNGINNYKNPKLTR[Nle]L[hSer][Yn3(4)]KF[Ygp(4)][Nle]PKKATELKHLQCLEEELKPLEEVL[hSer]LAQSKNFHLRPRDLISNINVIVLELKGSETTF[hSer]CEYADETATIVEFLNRWITFSQSIISTLT
modifications: ends and bridges not checked; also: MMP2 cleaved, ring opened, cut site and remnants not given here
B3: CMP-303, MMP2 cleaved (ligand)
chain: PLGLAGAPTSSSTKKTQLQLEHLLLDLQEILNGINNYKNPKLTR[Nle]L[hSer][Yn3″]KF[Ygp″][Nle]PKKATELKHLQCLEEELKPLEEVL[hSer]LAQSKNFHLRPRDLISNINVIVLELKGSETTF[hSer]CEYADETATIVEFLNRWITFSQSIISTLT
modifications: ends and bridges not checked; also: MMP2 cleaved, ring opened, cut site and remnants not given here
B4: CMP-315 (ligand)
chain: APTSSSTKKTQLQLEHLLLDLQKILNGINNYKNPKLTR[Nle]L[hSer][Yn3(4)]KF[Ygp(4)][Nle]PKKATELKHLQCLEEELKPLEEVL[hSer]LAQSKNFHLRPRDLISNINVIVLELKGSETTF[hSer]CEYADETATIVEFLNRWITFSQSIISTLT
modifications: ends and bridges not checked; also: further groups not given here
B5: CMP-301, MMP2 cleaved (ligand)
chain: APTSSSTKKTQLQLEHLLLDLQEILNGINNYKNPKLTR[Nle]L[hSer][Yn3″]KF[Ygp″][Nle]PKKATELKHLQCLEEELKPLEEVL[hSer]LAQSKNFHLRPRDLISNINVIVLELKGSETTF[hSer]CEYADETATIVEFLNRWITFSQSIISTLT
modifications: ends and bridges not checked; also: MMP2 cleaved, ring opened, cut site and remnants not given here
B6: CMP-305 (ligand)
chain: APTSSSTKKTQLQLEHLLLDLQKILNGINNYKNPKLTR[Nle]L[hSer][Yn3(4)]KF[Ygp(4)][Nle]PKKATELKHLQCLEEELKPLEEVL[hSer]LAQSKNFHLRPRDLISNINVIVLELKGSETTF[hSer]CEYADETATIVEFLNRWITFSQSIISTLT
modifications: bridge 15-23; not fully specified (bridges); ends not checked
B7: CMP-315, MMP2 cleaved (ligand)
chain: APTSSSTKKTQLQLEHLLLDLQKILNGINNYKNPKLTR[Nle]L[hSer][Yn3(4)]KF[Ygp(4)][Nle]PKKATELKHLQCLEEELKPLEEVL[hSer]LAQSKNFHLRPRDLISNINVIVLELKGSETTF[hSer]CEYADETATIVEFLNRWITFSQSIISTLT
modifications: ends and bridges not checked; also: MMP2-cleaved, product after cut not given here, further groups not given here
B8: CMP-304 (ligand)
chain: PLGLAGAPTSSSTKKTQLQLEHLLLDLQEILNGINNYKNPKLTR[Nle]L[hSer][Yn3(4)]KF[Ygp(4)][Nle]PKKATELKHLQCLEEELKPLEEVL[hSer]LAQSKNFHLRPRDLISNINVIVLELKGSETTF[hSer]CEYADETATIVEFLNRWITFSQSIISTLT
modifications: bridge N-29; not fully specified (N-terminus, bridges); ends not checked
B9: CMP-302 (ligand)
chain: GPLGLAGAPTSSSTKKTQLQLEHLLLDLQEILNGINNYKNPKLTR[Nle]L[hSer][Yn3″]KF[Ygp″][Nle]PKKATELKHLQCLEEELKPLEEVL[hSer]LAQSKNFHLRPRDLISNINVIVLELKGSETTF[hSer]CEYADETATIVEFLNRWITFSQSIISTLT
modifications: lactam N-30; ends not checked
B10: CMP-303 (ligand)
chain: PLGLAGAPTSSSTKKTQLQLEHLLLDLQEILNGINNYKNPKLTR[Nle]L[hSer][Yn3″]KF[Ygp″][Nle]PKKATELKHLQCLEEELKPLEEVL[hSer]LAQSKNFHLRPRDLISNINVIVLELKGSETTF[hSer]CEYADETATIVEFLNRWITFSQSIISTLT
modifications: bridge N-29; not fully specified (N-terminus, bridges); ends not checked
B11: CMP-305, MMP2 cleaved (ligand)
chain: APTSSSTKKTQLQLEHLLLDLQKILNGINNYKNPKLTR[Nle]L[hSer][Yn3(4)]KF[Ygp(4)][Nle]PKKATELKHLQCLEEELKPLEEVL[hSer]LAQSKNFHLRPRDLISNINVIVLELKGSETTF[hSer]CEYADETATIVEFLNRWITFSQSIISTLT
modifications: ends and bridges not checked; also: Glu15 and Lys23 side chains carried cleaved peptide linker, remnants after MMP2 cut not given here
B12: CMP-301 (ligand)
chain: GPLGLAG[PEG9′]APTSSSTKKTQLQLEHLLLDLQEILNGINNYKNPKLTR[Nle]L[hSer][Yn3″]KF[Ygp″][Nle]PKKATELKHLQCLEEELKPLEEVL[hSer]LAQSKNFHLRPRDLISNINVIVLELKGSETTF[hSer]CEYADETATIVEFLNRWITFSQSIISTLT
modifications: lactam N-31; ends not checked
B13: CMP-324 (ligand)
chain: LVGAPTSSSTKKTQLQLEHLLLDLQEILNGINNYKNPKLTR[Nle]L[hSer][Yn3″]KF[Ygp″][Nle]PKKATELKHLQCLEEELKPLEEVL[hSer]LAQSKNFHLRPRDLISNINVIVLELKGSETTF[hSer]CEYADETATIVEFLNRWITFSQSIISTLT
modifications: not fully specified (residue 26); ends and bridges not checked; also: Glu26 side chain attached to another sequence (short peptide)
B14: CMP-323 (ligand)
chain: LVGAPTSSSTKKTQLQLEHLLLDLQE([Arg-Gly-Arg])ILNGINNYKNPKLTR[Nle]L[hSer][Yn3″]KF[Ygp″][Nle]PKKATELKHLQCLEEELKPLEEVL[hSer]LAQSKNFHLRPRDLISNINVIVLELKGSETTF[hSer]CEYADETATIVEFLNRWITFSQSIISTLT
modifications: not fully specified; ends and bridges not checked
B15: CMP-325 (ligand)
chain: RVANLVGAPTSSSTKKTQLQLEHLLLDLQE([Arg-Gly-Arg])ILNGINNYKNPKLTR[Nle]L[hSer][Yn3″]KF[Ygp″][Nle]PKKATELKHLQCLEEELKPLEEVL[hSer]LAQSKNFHLRPRDLISNINVIVLELKGSETTF[hSer]CEYADETATIVEFLNRWITFSQSIISTLT
modifications: not fully specified; ends and bridges not checked
B16: CMP-321, MMP2 cleaved molecule (ligand)
chain: SGRVQPLVDAPTSSSTKKTQLQLEHLLLDLQEILNGINNYKNPKLTR[Nle]L[hSer][Yn3(8)]KF[Ygp(8)][Nle]PKKATELKHLQCLEEELKPLEEVL[hSer]LAQSKNFHLRPRDLISNINVIVLELKGSETTF[hSer]CEYADETATIVEFLNRWITFSQSIISTLT
modifications: lactam N-32; also: MMP2 cleaved, cleavage site and product not given here

What follows are binders tested against T1, IL-2Rβγ on HEK-Blue IL-2Rβγ reporter … (assay: cell-based or functional assay).

| Binder | Average EC50, HEK-Blue IL-2R (CD122+, CD132+) Reporter Assay, MMP2 cleaved molecule [nM] | Average EC50, HEK-Blue IL-2R (CD122+, CD132+) Reporter Assay, intact molecule [nM] |
| --- | --- | --- |
| B1 | 0.00646 |  |
| B2 | 0.021 |  |
| B3 | 0.0218 |  |
| B4 |  | 0.0554 |
| B5 | 0.00726 |  |
| B6 |  | 0.497 |
| B7 | 0.0418 |  |
| B8 |  | 0.34 |
| B9 |  | 0.436 |
| B10 |  | 0.521 |
| B11 | 0.0185 |  |
| B12 |  | 0.591 |

What follows are binders tested against T2, IL-2 receptor βγ complex (assay: cell-based or functional assay).

| Binder | Average EC50, pSTAT5 Assay in NK cells [nM] |
| --- | --- |
| B13 | 0.38 |
| B14 | 0.13 |
| B15 | 0.18 |
| B16 | 2.94 |

From patent publication US20240376170A1 (BRIGHT PEAK THERAPEUTICS, published 2024)
